Source: publication PMC3948114

Molecular target: HLA-B*27:05-KK10 tetramer
Test: tetramer staining of transfected HEK293 cells
Settings: 0.2 μg tetramer; parent: est. 100; read off a plot

## FLAG-tagged 3DL1*001 (from UniProt P43629) A167G
  percent of parent: 76 % of ·001

## FLAG-tagged 3DL1*001 (from UniProt P43629) E282Q
  percent of parent: 44 % of ·001

## FLAG-tagged 3DL1*001 (from UniProt P43629) D230A
  percent of parent: 30 % of ·001

## FLAG-tagged 3DL1*001 (from UniProt P43629) E282A
  percent of parent: 22 % of ·001

## FLAG-tagged 3DL1*001 (from UniProt P43629) M165A
  percent of parent: 52 % of ·001

## FLAG-tagged 3DL1*001 (from UniProt P43629) L166A
  percent of parent: 180 % of ·001

## FLAG-tagged 3DL1*001 (from UniProt P43629) L166V
  percent of parent: 20 % of ·001

## FLAG-tagged 3DL1*001 (from UniProt P43629) P199A
  percent of parent: 10 % of ·001

## FLAG-tagged 3DL1*001 (from UniProt P43629) Y200A
  percent of parent: 8 % of ·001

## FLAG-tagged 3DL1*001 (from UniProt P43629) Y200F
  percent of parent: 36 % of ·001
